# Data from patent publication US10323078B2, “Isolated peptides and fragments thereof from fibrinogen for use as drugs, particularly in skin inflammatory diseases” (Universite Paris Descartes, priority 2015, dated 2019).
# B1: MKRMVSWSFHKLKTMKHLLLLLLCVFLVKSQGVNDNEEGFFSARGHRPLDKKREEAPSLRPAPPPISGGGYRARPAKAAATQKKVERKAPDAGGCLHADPDLGVLC (protein)
# chain: MKRMVSWSFHKLKTMKHLLLLLLCVFLVKSQGVNDNEEGFFSARGHRPLDKKREEAPSLRPAPPPISGGGRARPAKAAATQKKVERKAPDAGGCLHADPDLGVLCMKRMVSWSFHKLKTMKHLLLLLLCVFLVKSQGVNDNEEGFFSARGHRPLDKKREEAPSLRPAPPPISGGGYRARPAKAAATQKKVERKAPDAGGCLHADPDLGVLC
# modifications: GST fusion; fragment Fg1
# notes: fragment of Bß chain of human fibrinogen having 106 amino acids; recombinant GST-fused peptide expressed in E. coli
# How the values were obtained:
# Type in all cases: cell-based, human
# HaCaT cells = test: H2O2 production by P. acnes-stimulated HaCaT (spectrofluorimetry, H2-DCFDA); details: bacteria first pretreated, 0.87 to 7 μM
# Method: (§1) For experiences of stimulation with P. acnes, cells were incubated with the P. acnes suspension adjusted at the appropriate concentration, pre-treated for 1 h at 37° C. or not with fibrinogen recombinant peptides Fg1 and Fg2 at the concentrations 0.87, 1.75, 3.5 or 7 μM for the desired period of time at 37° C. in 5% CO2.
# (§2) All cells lines (5·10^4 to 10^5 cells/well) were seeded in 96-well plates (Corning Costar, Brumath, France) and treated as previously described. After stimulation, cells were washed three times in PBS and incubated with 100 μl per wells of 5 μM DHE (for determination of O2^●−) or 5 μM H2-DCFDA (for determination of H2O2) for 30 min as described previously and fluorescence intensity was recorded every hour over a period of 5 h. Fluorescence excitation/emission maxima were for DHE: 480/610 nm and for H2-DCFDA: 507/525 nm. At the end of the experiment, the number of adherent cells was evaluated by the crystal violet assay as described below. O2^●−, and H2O2 were assayed by spectrofluorimetry on a Fusion spectrofluorimeter (PackardBell, Paris, France). Levels of ROS were calculated in each sample as follows: reactive oxygen species rate (arbitrary units/min/10^6 cells)=(fluorescence intensity [arbitrary units] at T5h—fluorescence intensity [arbitrary units] at To/300 minutes/number of adherent cells as measured by the crystal violet assay, and were expressed as arbitrary unit (A.U.).
# (§3) To assess the efficacy of Fg1 recombinant peptide, the production of O2^∘− and H2O2 by HaCaT cells NHDK, THP-1, MRC5 and HDF stimulated by pretreated P. acnes strains 6919, RON and PIE was measured. The amount of ROS produced was compared to that produced by the stimulated cells with untreated bacteria. Production baseline was obtained by measuring ROS on unstimulated cells. The production of IL-1ß, IL-8, IL-12 and TNF-α was also measured in all conditions cited above. The measurement of the production of ROS is performed by spectrofluorimetry in the presence of specific fluorochromes directly on the monolayer cell. Measurement of cytokine production was performed in parallel on the cell culture supernatant.
# (§4) Two sets of experiments were implemented: 1) The cells were stimulated (18 h at 37° C.) by P. acnes strains previously pretreated with Fg1 and Fg2 peptides at the final concentrations ranging from 0.87 to 7 μM for 1 h at 37° C.; and 2) The cells were pretreated first with Fg1 and Fg2 peptides at the final concentrations ranging from 0.87 to 7 μM for 24 h at 37° C. and stimulated (18 h at 37° C.) by P. acnes strains.
# (§5) To assess the efficacy of the small Fg1-related peptide, the production of H2O2 by several cell lines (HaCaT, NHDK, THP-1, MRC5 and HDF) stimulated by three P. acnes strains 6919, RON and PIE was measured, in presence or not with the small peptides. The amount of H2O2 produced is compared to that produced by the stimulated cells with untreated bacteria. Production baseline is obtained by measuring H2O2 on unstimulated cells. The measurement of the production of H2O2 is performed by spectrofluorimetry in the presence of specific fluorochromes directly on the monolayer cell.
# (§6) Two sets of experiments have been implemented: • I) The cells are stimulated (18 h at 37° C.) by P. acnes strains previously pretreated with Fg1.1, Fg1.2, Fg1.3, Fg1.4, and Fg1.5 small peptides at the final concentrations ranging from 2.5 to 20 μM for 1 h at 37° C.; • II) The cells are pretreated first with the five small peptides at the final concentrations ranging from 2.5 to 20 μM for 24 h at 37° C. and stimulated (18 h at 37° C.) by P. acnes strains.
# NHDK cells [1] = test: H2O2 production by P. acnes-stimulated NHDK; details: 0.87 to 7 μM
# Method: as §1, §2, §3, §4, §5, §6
# NHDK cells [2] = test: IL-8 production by P. acnes-stimulated NHDK (ELISA); details: 0.87 to 7 μM
# Method: as §1
# Human IL-1ß, IL-8, IL-12, hBD-2, and TNF-α protein concentration was measured in the supernatants of stimulated cells using various ELISA Set kits (Ready-Set-Go kit from eBioscience for acne experiments, and for psoriasis experiments the Duo set IL-8 kit from R&D Systems and the BD-2 Human Development (hBD-2) from Peprotech) according to the manufacturer's instructions. We used serial dilutions of recombinant human IL-1ß, IL-8, IL-12 and TNF-α for standard curve. The optical density was determined at 450 nm at a wavelength correction of 540 nm.
# as §3, §4
# NHDK cells [3] = test: O2°− production by P. acnes-stimulated NHDK; details: 0.87 to 7 μM
# Method: as §1, §2, §3, §4
# [4] = tested on: HaCaT, NHDK, ThP1, MRC5 and HDF cell lines; test: Cell viability (MTT) after treatment with Fg1 and Fg2 recombinant peptides; details: all 5 cell lines; 0.22 to 7 mM for 18 h at 37° C.
# Method: FIG. 10: Evaluation of cell viability after treatment with the Fg1 and Fg2 recombinant peptides. Human immortalized and primary keratinocyte cell lines HaCaT and NHDK; immortalized monocytes cell line ThP1, and immortalized and primary fibroblast cell lines MRCS and HDF were incubated with Fg1 and Fg2 recombinant peptides with concentrations ranging from 0.22 to 7 mM for 18 h at 37° C. Cell viability was assessed using the MTT assay as described in Materials and Methods.
# Crystal violet staining was used to determine the number of adherent cells in 96-well plates. Briefly, after incubation with the test compound, the culture medium was discarded and the cells were incubated with a 0.05% crystal violet solution (Sigma) for 30 min at room temperature. After washing with PBS, 100% methanol was added, and the absorbance was measured spectrophotometrically at 540 nm on an ELISA multiwell reader. The MTT ([…]) assay was performed to test cell viability in 96-well plates. […] After thorough mixing, the absorbance was measured at 540 nm.
# Whole P. acnes bacteria are labelled by biotinylation, pre-treated or not with the peptides and contacted with the various cell lines. After removal of the unfixed bacteria, the adhesion activity was measured spectrophotometrically by using the streptavidin-peroxidase conjugate and a chromogenic substrate.
# [5] = P. acnes 6919, set I, bacteria first pretreated
# [6] = P. acnes 6919, set II, cells first pretreated
# [7] = P. acnes PIE, set I, bacteria first pretreated
# [8] = P. acnes PIE, set II, cells first pretreated
# [9] = P. acnes RON, set I, bacteria first pretreated
# [10] = P. acnes RON, set II, cells first pretreated
molecule,measurement,setting,value
B1,Inhibition of Hydrogen peroxide (H2O2) production,"HaCaT cells; P. acnes 6919, set I",pos
same,Inhibition of Hydrogen peroxide (H2O2) production,"HaCaT cells; P. acnes PIE, set I",pos
same,Inhibition of Hydrogen peroxide (H2O2) production,"HaCaT cells; P. acnes RON, set I",pos
same,Inhibition of Hydrogen peroxide (H2O2) production,NHDK cells [1]; [5],pos
same,Inhibition of Hydrogen peroxide (H2O2) production,NHDK cells [1]; [6],pos
same,Inhibition of Hydrogen peroxide (H2O2) production,NHDK cells [1]; [7],pos
same,Inhibition of Hydrogen peroxide (H2O2) production,NHDK cells [1]; [8],pos
same,Inhibition of Hydrogen peroxide (H2O2) production,NHDK cells [1]; [9],pos
same,Inhibition of Hydrogen peroxide (H2O2) production,NHDK cells [1]; [10],pos
same,Inhibition of Interleukine 8 (IL-8) production,NHDK cells [2]; [5],pos
same,Inhibition of Interleukine 8 (IL-8) production,NHDK cells [2]; [6],pos
same,Inhibition of Interleukine 8 (IL-8) production,NHDK cells [2]; [7],pos
same,Inhibition of Interleukine 8 (IL-8) production,NHDK cells [2]; [8],pos
same,Inhibition of Interleukine 8 (IL-8) production,NHDK cells [2]; [9],pos
same,Inhibition of Interleukine 8 (IL-8) production,NHDK cells [2]; [10],pos
same,Inhibition of Superoxide anion (O2°−) production,NHDK cells [3]; [5],pos
same,Inhibition of Superoxide anion (O2°−) production,NHDK cells [3]; [6],pos
same,Inhibition of Superoxide anion (O2°−) production,NHDK cells [3]; [7],pos
same,Inhibition of Superoxide anion (O2°−) production,NHDK cells [3]; [8],pos
same,Inhibition of Superoxide anion (O2°−) production,NHDK cells [3]; [9],pos
same,Inhibition of Superoxide anion (O2°−) production,NHDK cells [3]; [10],pos
same,"Cytotoxic activity (cell viability, MTT)",[4],no cytotoxic activity
